Measured values published in patent US12668821B2, “Enzymatic production of glucaric acid from glucuronic acid” (THE GOVERNING COUNCIL OF THE UNIVERSITY OF TORONTO, priority 2019, dated 2026).
Changes are numbered by the printed parent chain. Names may count otherwise. “Also recorded” adds a separate entry of the source.

B1: Q384A: GOOX variant with Q384A relative to SEQ ID NO: 1 (protein, listed as Sarocladium strictum)
chain: NSINACLAAADVEFHEEDSEGWEMDGTAFNLRVDYDPVAIAIPRSTEDIAAAVQCGLDAGVQISAKGGGHSYGSYGFGGEDGHLMLELDRMYRVSVDDDNVATIQGGARLGYTALELLDQGNRALTHGTCPAVGIGGHVLGGGYGFATHTHGLTLDWLVGATVVLADASIVHVSKTENADLFWALRGGGGGFAIVSEFEFNTFEAPEIITTYQVTTTWNRKQHVAGLKALQDWAENTMPRELSMRLEINANALNWEGNYFGNAKDLKKVLQPIMKKAGGKSTISKLVETDWYGQINTYLYGADLNITYNYDVHEYFYANSLTAPRLSDEAISAFVDYKFDNSSVRPGRGWWIQWDFHGGKNSALASHSNDETAYAHRDQLWLWAFYDNIYDYENNTSPYPESGFEFMQGFVATIEDTLPEDRKGKYFNYADTTLDKEEAQKLYWRGNLEKLQAIKAKYDPEDVFGNVVSVEPIA
modifications: (1)..(206) FAD-binding domain; (207)..(474) substrate-binding domain
B2: N388S-V38A: GOOX variant with N388S and V38A relative to SEQ ID NO: 1 (protein, listed as Sarocladium strictum)
chain: B1 chain with V38A, A384Q, N388S
modifications: (1)..(206) FAD-binding domain; (207)..(474) substrate-binding domain
B3: Y72A: GOOX variant with Y72A relative to SEQ ID NO: 1 (protein, listed as Sarocladium strictum)
chain: B1 chain with Y72A, A384Q
modifications: (1)..(206) FAD-binding domain; (207)..(474) substrate-binding domain
B4: wtGOOX: Wild-type gluco-oligosaccharide oxidase from Sarocladium strictum, SEQ ID NO: 1, with C-terminal myc-tag and 6xHis-tag (protein, listed as Sarocladium strictum)
chain: B1 chain with A384Q
modifications: C-terminal myc-tag and 6xHis-tag; (1)..(206) FAD-binding domain; (207)..(474) substrate-binding domain
B5: Q384N: GOOX variant with Q384N relative to SEQ ID NO: 1 (protein, listed as Sarocladium strictum)
chain: B1 chain with A384N
modifications: (1)..(206) FAD-binding domain; (207)..(474) substrate-binding domain

Key:
[1] = Degradation of MeGlcA by H2O2 (HPAEC-PAD); assay type: physicochemical; conditions: up to 100 mM H2O2, 50 mM Tris pH 8.0, 40° C., 16 h
Description: FIG. 10: HPAEC-PAD analyses of H2O2 effects on AxyAgu115A activity and MeGlcA degradation.
AxyAgu115A (10 μg/mL) was incubated with 1% glucuronoxylan in 50 mM Tris buffer pH 8.0 in the presence of various H2O2 concentrations (0.01-100 mM). MeGlcA (1 mM) was also incubated with the same H2O2 concentrations. The reactions were kept in the dark at 40° C. for 16 h in a thermomixer (Eppendorf, USA). Catalase (200 μg/mL) was then added, and the reactions were kept incubating for another 30 min to remove H2O2 before HPAEC-PAD analysis.
Even at 200 mM H2O2, GOOX-Y300A retained more than 50% of its activity on glucose and 100% of its activity on cellobiose (Vuong et al., 2016).

[2] = Activity screening of GOOX variants and glucose oxidase on GlcA; assay type: biochemical; conditions: enzyme 16 nM, 37° C., 10 mM GlcA (FIG. 11 legend; b102 says 100 mM), 100 mM Tris pH 8.0 (GOOX variants) or 50 mM sodium acetate pH 5.0 (GO)
Description: (§1) FIG. 11: Activity screening of GOOX variants and glucose oxidase (GO) on GlcA and MeGlcA substrates. The enzymes (16 nM) were assayed at 37° C. with 10 mM GlcA and 1 mM MeGlcA in 100 mM Tris buffer pH 8.0 (for GOOX variants) or 50 mM sodium acetate pH 5.0 (for GO). The dotted line indicates the activity of GOOX-VN for MeGlcA for ease of comparison. “CtCBM22A-wtGOOX” and “CtCBM22A-Y300A” represent fusion proteins where the C terminus of the xylan-binding protein CtCBM22A (described in Vuong and Master, 2014) is fused to the N terminus GOOX.
(§2) The specific activity of GOOX-Y300A (16 nM) on MeGlcA and GlcA (1 mM) was measured in 50 mM Tris buffer pH 8.0 at 40° C. The amount of methyl glucaric acid was determined by measuring the release of H2O2 using a previously published colorimetric assay (Lin et al., 1991). The kinetics of GOOX-Y300A on these acidic sugars were measured at the same condition, but using up to 60 mM MeGlcA and GlcA and in 0.3 M Tris buffer pH 8.0.

[3] = Activity screening of GOOX variants and glucose oxidase on MeGlcA; assay type: biochemical; conditions: enzyme 16 nM, 37° C., 1 mM MeGlcA (FIG. 11 legend; b102 says 10 mM), 100 mM Tris pH 8.0 (GOOX variants) or 50 mM sodium acetate pH 5.0 (GO)
Description: as §1, §2

Molecule	loss of MeGlcA in the presence of H2O2 [1]	nmol oxidized GlcA Mean [2]	nmol oxidized MeGlcA Mean [3]
CO[C@@H]([C@H](O)[C@@H](O)C=O)[C@H](O)C(=O)O [MeGlcA, 4-O-methyl D-glucuronic acid]	no loss of MeGlcA; also recorded: did not cause a loss of MeGlcA		
B1		-0.00914 nmol	0.4569 nmol
B2		0.02835 nmol	0.9559 nmol
B3		-0.01097 nmol	0.8997 nmol
B4		-0.04572 nmol	0.9032 nmol
B5		-0.02195 nmol	0.683 nmol
